Like-named read-outs stand apart in the source and are kept apart here. Each block holds one molecule with its values, some of them ahead of it.
How the values were obtained:
[1] = Dissociation assay with fluorescent biotin conjugate (ArcDia BF560); assay type: binding; settings: for Release 1 h / t1/4 (time point of 25% release) / kdiss: 23 ± 1° C.; for Release 1 h: 100-fold molar excess of free biotin; for t1/4 (time point of 25% release): determined directly from the measured data; for kdiss: one-phase dissociation model
Procedure: The biotin-binding properties of produced mutagenised dcAvds were analysed by method based on the quenching of biotin-coupled fluorescent probe ArcDia BF560 (ArcDia Ltd., Turku, Finland) due to binding to avidin (FIG. 4). PerkinElmer LS55 luminometer was used for measurements. […] The spectra of 50 nM biotin-Bf560 solution in 50 mM Na-phosphate containing 650 mM NaCl was measured (red). Chicken avidin (Belovo S. A., Bastogne, Belgium) was added to final subunit concentration of 83 nM and green spectra was obtained.
Briefly, 50 nM free biotin-Bf560 solution in 50 mM Na-phosphate containing 650 mM NaCl was measured using excitation at 560 nm (2.5 nm slit) and emission was collected at 578 nm (5 nm slit). Continuous stirring (setting low) was used throughout the analysis. After 100 sec measurement, the protein under study was added to final biotin-binding subunit concentration 50 nM and the measurement was continued for 500 sec. […]
A one-phase dissociation model was used to analyse the data, as described elsewhere (Hytönen et al., (2004) Biochem J, in press). The dissociation rate constant (kdiss) was determined by fitting the equation −kdisst=ln(B/Bo) to the data. Bo is the measured maximum binding (100%) determined as the difference between the fluorescence of the free dye and the fluorescence of the protein-dye complex, and B is the amount of complex measured as a function of time. The first 500 seconds were omitted from the data to abolish the effect of the fast initial phase characteristic of avidin-BF560-biotin interaction (FIG. 9). The fraction of fluorescent biotin released after one-hour was determined, as well as the times of half-maximal (t½) and quarter-maximal (t¼) release. For dual chain avidins with modified binding sites, it was hypothesized that 50% of the binding sites would behave like those of wt avidin (cpAvd5S4 binding site of dcAvd was not modified). The dissociation data measured for wt avidin divided by two was subtracted from the data measured for the modified dual chain avidins and the dissociation curve was fitted to the difference as above.

[2] = SDS-PAGE-based thermal stability assay; assay type: physicochemical; settings: for SDS-PAGE stability assay Tr (−)biotin / SDS-PAGE stability assay Tr (+)biotin: Table 5; for SDS-PAGE stability assay Tr (−)biotin: transition midpoint of oligomeric disassembly, without biotin; for SDS-PAGE stability assay Tr (+)biotin: with biotin; for Tr / Tr + btn: Table 2; for Tr: absence of biotin, half of tetramer/pseudo-tetramer broken into monomers; for Tr + btn: presence of biotin
Procedure: Thermal stability of the mutants was studied by using a SDS-PAGE-based method essentially as described in detail by Bayer et al. (Bayer, E. A. et al. Electrophoresis 17, 1319-1324 (1996)). Briefly, the protein sample in the absence or presence of biotin was diluted to a final concentration of 0.2 mg/mil in 50 mM Na-carbonate buffer, and the proteins were acetylated by adding acetyl NHS ester. Equal amount of SDS-PAGE sample buffer was added to each sample and the protein was incubated at different temperatures (between 25-100° C.) for 20 minutes. After that the samples were subjected to SDS-PAGE analysis and the gel was finally stained with Coomassie brilliant blue. Dissociation of the proteins into their subunits was observed from the gels and the transition temperatures, wherein half of the protein was (pseudo-)tetrameric and half monomeric were determined.

[3] = Heat-induced unfolding by DSC; assay type: physicochemical; settings: for ΔTm: change in Tm upon addition of a three-fold molar excess of biotin; for DSC Tm (+)biotin: three-fold molar excess of biotin; for DSC Tm (−)biotin: without biotin
[4] = Reversibility of biotin binding on biotinylated IAsys cuvette surface; settings: reversibility from biotin surface; biotin 423 μg/ml, one hour
Procedure: The reversibility of biotin binding was also measured using IAsys apparatus. In the reversibility assay, the sample proteins were allowed to bind to the biotinylated cuvette surface in PBS containing 1 M NaCl. After the equilibrium was reached, the cuvette was filled with PBS, 1 M NaCl containing biotin (423 μg/ml) and the dissociation of the proteins was monitored for one hour.

[5] = IAsys optical biosensor binding to immobilised 2-iminobiotin; settings: for kass / kdiss: 2-iminobiotin surface, 50 mM borate pH 9.5, 1 M NaCl, 20° C.; for Kd: 2-iminobiotin
Procedure: Reversibility of biotin binding and affinity towards 2-iminobiotin were determined with an IAsys optical biosensor (Affinity Sensors, Cambridge, UK) (Table 1.) as described in detail by Marttila et. al. (Marttila, A. T. et al. FEBS Lett 441, 313-7 (1998)). Briefly, The 2-iminobiotin ligand was immobilized onto the carboxymethyldextran surface of a cuvette using N-hydroxysuccinimide activation. Binding of various concentrations of avidin or avidin mutants onto 2-iminobiotinylated surface was measured in a 50 mM borate buffer (pH 9.5) containing 1 M NaCl at 20° C. The 2-iminobiotin cuvettes were regenerated with 20 mM HCl. The kinetic rate constants for association (kass) and dissociation (kdiss) were calculated using the Fast Fit program package (Affinity Sensors). The obtained rate constants were used to calculate Kd(rel) according to Kd=kdiss/kass. Equilibrium data obtained from measurements with different protein concentrations were used to calculate the dissociation constant Kd(eq).

[6] = Free biotin-binding sites by quenching of intrinsic fluorescence on biotin titration; settings: for Fluorescence quenching (350 nm): intrinsic fluorescence, emission 350 nm, due to binding of biotin; for Number of free biotin-binding sites per quaternary unit: protein 500±15 nM, titrated with biotin
Procedure: The number of free binding sites was determined based on the quenching of the intrinsic fluorescence of avidin due to binding of biotin (Laitinen et al., (2003) J. Biol. Chem. 278, 4010-4014). The protein sample under study diluted to 2 ml volume in 50 mM NaPO4 pH 7.0+650 mM NaCl was titrated with 1 μl additions of 70 μM biotin solution in the same buffer. The protein concentration in this assay was 500±15 nM, and the concentration was determined by comparing the emission intensity averaged over 340-350 nm (excitation at 280 nm) to avidin standard sample. The protein sample was continuously mixed by magnetic stirrer.
Intensity from each biotin concentration was averaged over eight second measurement. The end-point of the quenching was determined by fitting a line to obtained data and determining the total quenching by averaging the last three measured intensities (FIG. 12, Table 6).

[7] = Microplate temperature stability assay; assay type: physicochemical; settings: for activity after 32 min treatment: 80° C.
Procedure: FIG. 13. Temperature sensitivity determined by microplate assay. The avidin, dcAvd and scAvd sample is treated with the indicated temperature for certain time and the ability to bind biotinylated alkaline phosphatase was determined by coating the microplate with the sample.
The stability of the protein was studied by microplate assay as described in the article by Nordlund et al., (2003) J Biol Chem 278, 2479-83. In this assay, 50 mM Na—PO4 buffer containing 100 mM NaCl was used and the protein was heated to 80° C. or 90° C. for certain time. After that, the capacity to bind fluorescent biotin was measured as described in the article by Nordlund et al., (2003) J Biol Chem 278, 2479-83.

[8] = Colorimetric HABA-assay for number of free biotin-binding sites; settings: average from two independent experiments
Procedure: The colorimetric HABA-assay was performed essentially as described by Green (Green, N. Methods in Enzymology 18, 418-424 (1970)). Dual-chain avidin (dcAvd) in 100 mM phosphate buffer (pH 7) was saturated with excess HABA and the absorbance was measured at 500 nm with a Beckman DU640 spectrophotometer. After that, excess biotin, which replaces HABA from the binding site, was added to the sample and the absorbance at 500 nm was measured again. The observed change in the absorbance was used to calculate the number of free binding sites in dcAvd.
The number of biotin-binding sites per dual-chain avidin pseudo-tetramer (is actually a dimer with four binding sites) was determined in a colorimetric HABA-assay according to Green (Green, N. Methods in Enzymology 18, 418-424 (1970)). The average from two independent experiments gave an approximation of 3.3 free biotin-binding sites per dimeric molecule (pseudo-tetramer).

[9] = calculated from the rate constants (kdiss/kass), read-out: Kd(rel)
[10] = determined experimentally from the binding curves, read-out: Kd(eq)

reversibility [4]: 9%
kass [5]: (5.5 ± 0.5) × 10^5 M^−1s^−1
kdiss [5]: (1.9 ± 1.4) × 10^−3 s^−1
Kd [5, 9]: 34 nM
Kd [5, 10]: 22 nM
quenching measured for whole emission spectrum (290-500 nm) due to biotin binding [6]: 44.9%
Fluorescence quenching (350 nm) [6]: 47.7%
Number of free biotin-binding sites per quaternary unit [6]: 3.34
Number of free biotin-binding sites per quaternary unit ([6]; listed as avidin): 3.3
Molecule: Avidin: wild-type chicken avidin, homotetramer (SEQ ID NO:1) [reference compound]
Release 1 h [1]: 14.1%
kdiss [1]: 2.3e-05 s⁻¹
Dissociation of fluorescent biotin Release 1 h ([1]; 25° C.): 14.1%
Dissociation of fluorescent biotin kdiss ([1]; 25° C.): 2.3e-05 s⁻¹
Dissociation of fluorescent biotin Release 1 h ([1]; 50° C.): 71.5%
Dissociation of fluorescent biotin kdiss ([1]; 50° C.): 0.00024 s⁻¹
Tr [2]: 60 °C
Tr + btn [2]: 95 °C
SDS-PAGE stability assay Tr (−)biotin [2]: 60 °C
SDS-PAGE stability assay Tr (+)biotin [2]: 95 °C
ΔTm [3]: 33.5 °C
DSC Tm (+)biotin [3]: 117.0 ± 0.7 °C
DSC Tm (−)biotin [3]: 83.5 ± 0.1 °C
activity after 32 min treatment ([7]; 32 min): 82%
activity present after 32 min treatment ([7]; 90° C., 32 min): over 50%
heat inactivation ([7]; 100° C.): significantly slower response to the heat treatment

reversibility [4]: 8%
kass [5]: (9.8 ± 1.3) × 10^4 M^−1s^−1
kdiss [5]: (1.1 ± 0.5) × 10^−3 s^−1
Kd [5, 9]: 110 nM
Kd [5, 10]: 41 nM
free biotin-binding sites per dimeric molecule (pseudo-tetramer) [8]: ~3.3
quenching measured for whole emission spectrum (290-500 nm) due to biotin binding [6]: 45.1%
Fluorescence quenching (350 nm) [6]: 51.4%
Number of free biotin-binding sites per quaternary unit [6]: 3.86
B1: dcAvd: dual-chain avidin, fusion of cpAvd5→4 and cpAvd6→5 via SGG spacer (SEQ ID NO:2) (protein, listed as Gallus gallus)
chain: MVHATSPLLLLLLLSLALVAPGLSARKRTQPTFGFTVNWKFSESTTVFTGQCFIDRNGKEVLKTMWLLRSSVNDIGDDWKATRVGINIFTRLRTQKEGGSGGSARKCSLTGKWTNDLGSNMTIGAVNSRGEFTGTYITAVTATSNEIKESPLHGTQNTINKSGGSTTVFTGQCFIDRNGKEVLKTMWLLRSSVNDIGDDWKATRVGINIFTRLRTQKEGGSGGSARKCSLTGKWTNDLGSNMTIGAVNSRGEFTGTYITAVTATSNEIKESPLHGTQNTINKRTQPTFGFTVNWKFSE
Release 1 h [1]: 10.1%
kdiss [1]: 1.4e-05 s⁻¹
Dissociation of fluorescent biotin Release 1 h ([1]; 25° C.): 10.1%
Dissociation of fluorescent biotin kdiss ([1]; 25° C.): 1.5e-05 s⁻¹
Dissociation of fluorescent biotin Release 1 h ([1]; 50° C.): 67.4%
Dissociation of fluorescent biotin kdiss ([1]; 50° C.): 0.00027 s⁻¹
Tr [2]: 40 °C
Tr + btn [2]: 75 °C
SDS-PAGE stability assay Tr (−)biotin [2]: 40 °C
SDS-PAGE stability assay Tr (+)biotin [2]: 75 °C
ΔTm [3]: 35.7 °C
DSC Tm (+)biotin [3]: 115.9 °C
DSC Tm (−)biotin [3]: 80.2 ± 0.0 °C
activity after 32 min treatment ([7]; 32 min): 59%
heat inactivation ([7]; 90° C.): fast denaturation
heat inactivation ([7]; 100° C.): fast inactivation

Continued, molecule first:

Molecule: Avd(S16A): avidin mutant S16A in all four subunits
Release 1 h [1]: 74.5%
t1/4 (time point of 25% release) [1]: 621 s
kdiss [1]: 0.00036 s⁻¹
SDS-PAGE stability assay Tr (−)biotin [2]: 55 °C
SDS-PAGE stability assay Tr (+)biotin [2]: 80 °C
ΔTm [3]: 30.3 °C
DSC Tm (+)biotin [3]: 114.6 ± 0.2 °C
DSC Tm (−)biotin [3]: 84.3 ± 0.3 °C

Molecule: Avd(Y33H): avidin with four identically mutagenised (Y33H) subunits (Marttila et al. 2003) [reference compound]
dissociation of biotin-coupled fluorescent probe with excess unlabeled biotin ([1]; 5 μM free biotin, 3600 sec, 23±0.5° C.): rapid and complete dissociation
Release 1 h [1]: 99.2%
t1/4 (time point of 25% release) [1]: 149 s
kdiss [1]: 0.0011 s⁻¹
SDS-PAGE stability assay Tr (+)biotin [2]: 75 °C
ΔTm [3]: 33.3 °C
DSC Tm (+)biotin [3]: 106.3 °C
DSC Tm (−)biotin [3]: 73.0 °C

— patent US7960140B2, “Avidin mutants” (Orion Diagnostica Oy, priority 2003, dated 2011)
